Results from US20150377899A1.

Key:
[1] = molecular target: natural human Fc region prepared by papain digestion of human monoclonal IgG (Chugai Pharmaceutical Co., Ltd.) (human); experiment: SPR Biacore T100, Fc immobilized on CM5, peptide as analyte
[2] = molecular target: natural human Fc region prepared by papain digestion of human monoclonal IgG (Chugai Pharmaceutical Co., Ltd.) (human); experiment: SPR, KD compared
[3] = molecular target: natural human Fc region prepared by papain digestion of human monoclonal IgG (Chugai Pharmaceutical Co., Ltd.) (human); experiment: SPR Biacore T100, Fc immobilized on CM5, polypeptide as analyte
[4] = molecular target: human Fc region manufactured by Jackson ImmunoResearch Laboratories, Inc. (human); experiment: SPR, KD compared
[5] = molecular target: human Fc region manufactured by Jackson ImmunoResearch Laboratories, Inc. (human); experiment: SPR Biacore T100, Fc immobilized on CM5, peptide as analyte
[6] = molecular target: natural human Fc region prepared by papain digestion of human monoclonal IgG (Chugai Pharmaceutical Co., Ltd.) (human); experiment: SPR Biacore T100, Fc immobilized on CM5, Scatchard plot of equilibrium values

Kd [1]	Kd [3]	Binder	further results
510 nM		DAAWHLGELVWATYYDPETGTWAPDWRLMQGQ [pep11 peptide]	
1.6 nM		p17-2 peptide (designed binder) GPGISAFSPGRGVYDPETGTWYDAAWHLGELVWATYYDPETGTWEPDWQRMLGQ	fold improvement in binding affinity against the FcIII-Ala peptide [2]: 26000 fold; fold improvement in binding affinity against the pep24 peptide [2]: 138 fold
	200 nM	p17_W48A (designed binder) GPGISAFSPGRGVYDPETGTWYDAAWHLGELVWATYYDPETGTWEPDAQRMLGQ	fold reduction in binding affinity against p17-2 [2]: > 100 fold
	7.8 nM	p17_R50A (designed binder) GPGISAFSPGRGVYDPETGTWYDAAWHLGELVWATYYDPETGTWEPDWQAMLGQ	
120 nM		DAAWHLGELVWATYYDPETGTWQPDWLYMTTR [pep14 peptide]	

The remaining lines, values behind:

Binder	Kd [1]	Kd [3]	further results
DAAWHLGELVWATYYDPETGTWEPDWQRMLGQ [pep24 peptide]			fold higher affinity against the particular sequence (FcIII-Ala) [2]: 190 fold
p17_D47A (designed binder) GPGISAFSPGRGVYDPETGTWYDAAWHLGELVWATYYDPETGTWEPAWQRMLGQ		45 nM	
p17_M51A (designed binder) GPGISAFSPGRGVYDPETGTWYDAAWHLGELVWATYYDPETGTWEPDWQRALGQ		180 nM	fold reduction in binding affinity against p17-2 [2]: > 100 fold
p17_P46A (designed binder) GPGISAFSPGRGVYDPETGTWYDAAWHLGELVWATYYDPETGTWEADWQRMLGQ		5.6 nM	
GVVRQWSGGGGSGGGGRSSIAYGGG [2A1Gly peptide]			binding affinity as a fraction of that of the 2A1 peptide [4]: < 0.001; Kd [5]: 23 µM
DAAWHLGELVWATYYDPETGTWLPDWQTMAQK [pep21 peptide]	100 nM		fold improvement in affinity against the FcIII-Ala peptide [2]: 420 fold
DAAWHLGELVWAT [FcIII-Ala peptide]			Kd [6]: 42 µM
